Results published in publication PMC8139980, “Qki activates Srebp2-mediated cholesterol biosynthesis for maintenance of eye lens transparency”.

T1: Qki-5 full-length (UniProt Q9QYS9 1-341)
T1 sequence: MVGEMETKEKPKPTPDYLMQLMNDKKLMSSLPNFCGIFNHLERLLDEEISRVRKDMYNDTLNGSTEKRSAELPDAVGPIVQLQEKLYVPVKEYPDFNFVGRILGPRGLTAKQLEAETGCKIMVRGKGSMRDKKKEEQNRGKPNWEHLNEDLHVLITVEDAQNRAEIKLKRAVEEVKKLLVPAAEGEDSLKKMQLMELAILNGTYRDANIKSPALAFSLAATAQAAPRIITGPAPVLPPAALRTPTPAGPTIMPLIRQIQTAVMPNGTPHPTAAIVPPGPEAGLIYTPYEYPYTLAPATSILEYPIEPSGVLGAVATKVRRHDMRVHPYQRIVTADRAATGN

T2: Qki-5 STAR domain (UniProt Q9QYS9 7-214)
T2 sequence: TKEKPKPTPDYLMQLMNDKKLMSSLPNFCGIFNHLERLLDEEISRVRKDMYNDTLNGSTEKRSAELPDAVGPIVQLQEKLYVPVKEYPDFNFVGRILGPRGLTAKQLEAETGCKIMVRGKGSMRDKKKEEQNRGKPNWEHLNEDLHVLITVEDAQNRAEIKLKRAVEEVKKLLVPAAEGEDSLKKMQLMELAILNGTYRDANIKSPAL


Tests used:
[1] = target: T1, Qki-5 full-length; assay: MST; MST: 20 nM Atto488-protein, PBS with Tween-20 (0.1% in 2x protein stock), 25 C; ITC: 50 mM Tris pH 7.5, 150 mM NaCl, 20 C; details: protein: recombinant; tags: N-terminal Trx-His6 (PreScission site); Atto488-NHS labeled for MST; chain copies: 2
[2] = target: T2, Qki-5 STAR domain; assay: ITC; text says KH domain of Qki; assayed construct is STAR; MST: 20 nM Atto488-protein, PBS with Tween-20 (0.1% in 2x protein stock), 25 C; ITC: 50 mM Tris pH 7.5, 150 mM NaCl, 20 C; details: protein: recombinant; tags: N-terminal Trx-His6 (PreScission site); chain copies: 2
[3] = target: T1, Qki-5 full-length; assay: MST; Kd only in figure; MST: 20 nM Atto488-protein, PBS with Tween-20 (0.1% in 2x protein stock), 25 C; ITC: 50 mM Tris pH 7.5, 150 mM NaCl, 20 C; details: protein: recombinant; tags: N-terminal Trx-His6 (PreScission site); Atto488-NHS labeled for MST; chain copies: 2
[4] = target: T2, Qki-5 STAR domain; assay: ITC; Kd only in figure; MST: 20 nM Atto488-protein, PBS with Tween-20 (0.1% in 2x protein stock), 25 C; ITC: 50 mM Tris pH 7.5, 150 mM NaCl, 20 C; details: protein: recombinant; tags: N-terminal Trx-His6 (PreScission site); chain copies: 2
[5] = target: T1, Qki-5 full-length; assay: as above; details: protein: recombinant; tags: N-terminal Trx-His6 (PreScission site); Atto488-NHS labeled for MST; chain copies: 2

Binder	Kd [1]	binding result [3]	further results
CAGAGCGCGCG (ssDNA) [QDE5-m]	83 µM		
CCAGTAACCAG (ssDNA) [QDE1]	2.01 µM		Kd [2]: 11.9 µM
CTTACGCTAAG (ssDNA) [QDE2]		binds	
CAGATAACGCG (ssDNA) [QDE5]		binds	
CCTGTAACTGG (ssDNA) [QDE3]		binds	
GGGGTAAGGGG (ssDNA) [QDE4]	81 µM		
UUCACUAACAA (ssRNA) [QRE2]			binding result [4]: binds; binding result [5]: binds
CUUCUUAAUAUAACUGCCUUAAACUUUAAU (ssRNA) [QRE1]		binds	
